# Test results: patent US20090022738A1 (MICROMET, published 2009)
# T1: CD19 (human, UniProt P15391 20-556)
# T1 construct: whole, on cells; also called CD19 on NALM-6 cells
# T1 sequence (looked up): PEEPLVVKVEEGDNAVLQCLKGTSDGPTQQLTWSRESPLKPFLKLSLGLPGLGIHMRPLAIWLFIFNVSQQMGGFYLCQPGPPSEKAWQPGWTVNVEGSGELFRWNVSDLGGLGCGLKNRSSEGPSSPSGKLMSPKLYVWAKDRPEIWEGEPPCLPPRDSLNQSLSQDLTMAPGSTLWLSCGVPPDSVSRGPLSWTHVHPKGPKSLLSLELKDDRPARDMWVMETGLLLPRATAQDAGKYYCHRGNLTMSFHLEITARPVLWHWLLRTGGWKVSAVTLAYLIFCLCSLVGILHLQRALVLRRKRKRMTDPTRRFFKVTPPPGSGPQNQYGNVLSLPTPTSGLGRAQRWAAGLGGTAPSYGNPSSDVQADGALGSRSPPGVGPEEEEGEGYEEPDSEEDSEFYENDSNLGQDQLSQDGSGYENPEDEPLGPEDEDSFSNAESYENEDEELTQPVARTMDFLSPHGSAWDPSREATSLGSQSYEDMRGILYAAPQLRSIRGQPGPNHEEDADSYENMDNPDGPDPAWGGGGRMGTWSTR
# Assays:
# CD19 = molecular target: T1, CD19; experiment: FACS, crude supernatant on CD19-positive NALM-6 cells; negative control MFI ca. 3
# Procedure: (§1) In order to analyze the binding efficacy of the deimmunized constructs to CD3 and CD19 a FACS-based assay was performed. Initially, crude supernatants were tested for binding on CD3-enriched PBMCs or CD19-positive NALM-6 cells. Cells were incubated with non-diluted supernatants for 30 minutes at 8° C. Upon two wash steps the cells were labeled with an anti-His antibody (Qiagen) under the same conditions. After additional wash steps binding of the constructs was detected with a FITC-conjugated sheep anti-mouse antibody (Sigma). Cells were analyzed with a FACS Calibur cytometer (B&D). As controls supernatants of anti-CD19×anti-CD3 and GFP-transfected cells were included. […] The positive control, which was a non-deimmunized anti-CD19×anti-CD3 construct reached a MFI of around 60 showing that the deimmunized constructs comprising anti-CD3 (VH5/VL1) (SEQ ID NO.:190), anti-CD3 (VH5/VL2) (SEQ ID NO.:192), anti-CD3 (VH5/VL3) (SEQ ID NO.:194), anti-CD3 (VH7/VL1) (SEQ ID NO.:196), anti-CD3 (VH7/VL2) (SEQ ID NO.:198) and anti-CD3 (VH7/VL3) (SEQ ID NO.:200) bound CD3 with extremely high efficacy.
# The FACS-based binding assay was also carried out for CD19. In this experiment CD19 and a secondary antibody was as a negative control. In this experiment, all assayed constructs achieved a MFI of at least 80 while the MFI of the negative control was ca. 3.
# human CD3 [1] = molecular target: T2, human CD3 (human, UniProt P07766 23-207; P04234 22-171; P09693 23-182); experiment: FACS on CD3-enriched PBMCs
# T2 construct: whole, on cells; also called CD3 antigen; human CD3 complex
# human CD3 [2] = molecular target: T2, human CD3; experiment: FACS, second experiment, crude supernatant on CD3-enriched PBMCs
# Procedure: as §1
# human CD3 [3] = molecular target: T2, human CD3; experiment: FACS, non-diluted crude supernatant on CD3-enriched PBMCs; anti-His + FITC anti-mouse
# Procedure: as §1
Binder,MFI (CD19),binding result (human CD3 [1]),MFI (human CD3 [2]),MFI (human CD3 [3]),"fold over the negative control (secondary antibody only, MFI ca. 3.5) (human CD3 [3])"
"anti-CD19×anti-CD3 (VH3/VL1) (SEQ ID NO.:184) (bispecific antibody, As m4: bispecific single chain, His-tagged; also called pEF anti-CD19×anti-CD3 (VH3/VL1)) DIQLTQSPASLAVSLGQRATISCKASQSVDYDGDSYLNWYQQIPGQPPKLLIYDASNLVSGIPPRFSGSGSGTDFTLNIHPVEKVDAATYHCQQSTEDPWTFGGGTKLEIKGGGGSGGGGSGGGGSQVQLQQSGAELVRPGSSVKISCKASGYAFSSYWMNWVKQRPGQGLEWIGQIWPGDGDTNYNGKFKGKATLTADESSSTAYMQLSSLASEDSAVYFCARRETTTVGRYYYAMDYWGQGTTVTVSSGGGGSDVQLVQSGAEVKKPGASVKVSCKASGYTATRYTMHWVRQAPGQGLEWIGYINPSRGYTNYAQKLQGRVTMTTDTSTSTAYLQMNSLKTEDTAVYYCARYYDDHYCLDYWGQGTTVTVSSGEGTSTGSGGSGGSGGADDIQMTQSPSSLSASVGDRVTITCRASQSVSYMNWYQQKPGKAPKRWIYDTSKVASGVPARFSGSGSGTDYSLTINSLEAEDAATYYCQQWSSNPLTFGGGTKVEIK",≥ 80 MFI,no binding (tested: non-diluted supernatant),~6 MFI,,
"anti-CD19×anti-CD3 (VH2/VL2) (SEQ ID NO.:180) (bispecific antibody, As m4: bispecific single chain, His-tagged; also called pEF anti-CD19×anti-CD3 (VH2/VL2)) DIQLTQSPASLAVSLGQRATISCKASQSVDYDGDSYLNWYQQIPGQPPKLLIYDASNLVSGIPPRFSGSGSGTDFTLNIHPVEKVDAATYHCQQSTEDPWTFGGGTKLEIKGGGGSGGGGSGGGGSQVQLQQSGAELVRPGSSVKISCKASGYAFSSYWMNWVKQRPGQGLEWIGQIWPGDGDTNYNGKFKGKATLTADESSSTAYMQLSSLASEDSAVYFCARRETTTVGRYYYAMDYWGQGTTVTVSSGGGGSDVQLVQSGAEVKKPGASVKVSCKASGYTATRYTMHWVRQAPGQGLEWIGYINPSRGYTNYAQKLQGRVTMTTDTSTSTAYMELSSLRSEDTATYYCARYYDDHYCLDYWGQGTTVTVSSGEGTSTGSGGSGGSGGADDIVLTQSPATLSLSPGERATLSCRASQSVSYMNWYQQKPGKAPKRWIYDTSKVASGVPARFSGSGSGTDYSLTINSLEAEDAATYYCQQWSSNPLTFGGGTKVEIK",≥ 80 MFI,no binding (tested: non-diluted supernatant),~6 MFI,,
"anti-CD19×anti-CD3 (VH2/VL3) (SEQ ID NO.:182) (bispecific antibody, As m4: bispecific single chain, His-tagged; also called pEF anti-CD19×anti-CD3 (VH2/VL3)) DIQLTQSPASLAVSLGQRATISCKASQSVDYDGDSYLNWYQQIPGQPPKLLIYDASNLVSGIPPRFSGSGSGTDFTLNIHPVEKVDAATYHCQQSTEDPWTFGGGTKLEIKGGGGSGGGGSGGGGSQVQLQQSGAELVRPGSSVKISCKASGYAFSSYWMNWVKQRPGQGLEWIGQIWPGDGDTNYNGKFKGKATLTADESSSTAYMQLSSLASEDSAVYFCARRETTTVGRYYYAMDYWGQGTTVTVSSGGGGSDVQLVQSGAEVKKPGASVKVSCKASGYTATRYTMHWVRQAPGQGLEWIGYINPSRGYTNYAQKLQGRVTMTTDTSTSTAYMELSSLRSEDTATYYCARYYDDHYCLDYWGQGTTVTVSSGEGTSTGSGGSGGSGGADDIVLTQSPATLSLSPGERATLTCRASSSVSYMNWYQQKPGKAPKRWIYDTSKVASGVPARFSGSGSGTDYSLTINSLEAEDAATYYCQQWSSNPLTFGGGTKVEIK",≥ 80 MFI,no binding (tested: non-diluted supernatant),~6 MFI,,
"anti-CD19×anti-CD3 (VH3/VL2) (SEQ ID NO.:186) (bispecific antibody, As m4: bispecific single chain, His-tagged; also called pEF anti-CD19×anti-CD3 (VH3/VL2)) DIQLTQSPASLAVSLGQRATISCKASQSVDYDGDSYLNWYQQIPGQPPKLLIYDASNLVSGIPPRFSGSGSGTDFTLNIHPVEKVDAATYHCQQSTEDPWTFGGGTKLEIKGGGGSGGGGSGGGGSQVQLQQSGAELVRPGSSVKISCKASGYAFSSYWMNWVKQRPGQGLEWIGQIWPGDGDTNYNGKFKGKATLTADESSSTAYMQLSSLASEDSAVYFCARRETTTVGRYYYAMDYWGQGTTVTVSSGGGGSDVQLVQSGAEVKKPGASVKVSCKASGYTATRYTMHWVRQAPGQGLEWIGYINPSRGYTNYAQKLQGRVTMTTDTSTSTAYLQMNSLKTEDTAVYYCARYYDDHYCLDYWGQGTTVTVSSGEGTSTGSGGSGGSGGADDIVLTQSPATLSLSPGERATLSCRASQSVSYMNWYQQKPGKAPKRWIYDTSKVASGVPARFSGSGSGTDYSLTINSLEAEDAATYYCQQWSSNPLTFGGGTKVEIK",≥ 80 MFI,no binding (tested: non-diluted supernatant),~6 MFI,,
"anti-CD19×anti-CD3 (VH5/VL3) (SEQ ID NO.:194) (bispecific antibody, As m4: bispecific single chain, His-tagged; also called pEF anti-CD19×anti-CD3 (VH5/VL3)) DIQLTQSPASLAVSLGQRATISCKASQSVDYDGDSYLNWYQQIPGQPPKLLIYDASNLVSGIPPRFSGSGSGTDFTLNIHPVEKVDAATYHCQQSTEDPWTFGGGTKLEIKGGGGSGGGGSGGGGSQVQLQQSGAELVRPGSSVKISCKASGYAFSSYWMNWVKQRPGQGLEWIGQIWPGDGDTNYNGKFKGKATLTADESSSTAYMQLSSLASEDSAVYFCARRETTTVGRYYYAMDYWGQGTTVTVSSGGGGSDVQLVQSGAEVKKPGASVKVSCKASGYTFTRYTMHWVRQAPGQGLEWIGYINPSRGYTNYADSVKGRFTITTDKSTSTAYMELSSLRSEDTATYYCARYYDDHYCLDYWGQGTTVTVSSGEGTSTGSGGSGGSGGADDIVLTQSPATLSLSPGERATLTCRASSSVSYMNWYQQKPGKAPKRWIYDTSKVASGVPARFSGSGSGTDYSLTINSLEAEDAATYYCQQWSSNPLTFGGGTKVEIK",≥ 80 MFI,,,≥ 90 MFI,~25 fold
"anti-CD19×anti-CD3 (VH3/VL3) (SEQ ID NO.:188) (bispecific antibody, As m4: bispecific single chain, His-tagged; also called pEF anti-CD19×anti-CD3 (VH3/VL3)) DIQLTQSPASLAVSLGQRATISCKASQSVDYDGDSYLNWYQQIPGQPPKLLIYDASNLVSGIPPRFSGSGSGTDFTLNIHPVEKVDAATYHCQQSTEDPWTFGGGTKLEIKGGGGSGGGGSGGGGSQVQLQQSGAELVRPGSSVKISCKASGYAFSSYWMNWVKQRPGQGLEWIGQIWPGDGDTNYNGKFKGKATLTADESSSTAYMQLSSLASEDSAVYFCARRETTTVGRYYYAMDYWGQGTTVTVSSGGGGSDVQLVQSGAEVKKPGASVKVSCKASGYTATRYTMHWVRQAPGQGLEWIGYINPSRGYTNYAQKLQGRVTMTTDTSTSTAYLQMNSLKTEDTAVYYCARYYDDHYCLDYWGQGTTVTVSSGEGTSTGSGGSGGSGGADDIVLTQSPATLSLSPGERATLTCRASSSVSYMNWYQQKPGKAPKRWIYDTSKVASGVPARFSGSGSGTDYSLTINSLEAEDAATYYCQQWSSNPLTFGGGTKVEIK",≥ 80 MFI,no binding (tested: non-diluted supernatant),~6 MFI,,
"anti-CD19×anti-CD3 (VH2/VL1) (SEQ ID NO.:178) (bispecific antibody, also called pEF anti-CD19×anti-CD3 (VH2/VL1)) DIQLTQSPASLAVSLGQRATISCKASQSVDYDGDSYLNWYQQIPGQPPKLLIYDASNLVSGIPPRFSGSGSGTDFTLNIHPVEKVDAATYHCQQSTEDPWTFGGGTKLEIKGGGGSGGGGSGGGGSQVQLQQSGAELVRPGSSVKISCKASGYAFSSYWMNWVKQRPGQGLEWIGQIWPGDGDTNYNGKFKGKATLTADESSSTAYMQLSSLASEDSAVYFCARRETTTVGRYYYAMDYWGQGTTVTVSSGGGGSDVQLVQSGAEVKKPGASVKVSCKASGYTATRYTMHWVRQAPGQGLEWIGYINPSRGYTNYAQKLQGRVTMTTDTSTSTAYMELSSLRSEDTATYYCARYYDDHYCLDYWGQGTTVTVSSGEGTSTGSGGSGGSGGADDIQMTQSPSSLSASVGDRVTITCRASQSVSYMNWYQQKPGKAPKRWIYDTSKVASGVPARFSGSGSGTDYSLTINSLEAEDAATYYCQQWSSNPLTFGGGTKVEIK",≥ 80 MFI,no binding (tested: non-diluted supernatant),~6 MFI,,
"anti-CD19×anti-CD3 (VH5/VL2) (SEQ ID NO.:192) (bispecific antibody, As m4: bispecific single chain, His-tagged; also called pEF anti-CD19×anti-CD3 (VH5/VL2); anti-CD3 (VH5/VK2)) DIQLTQSPASLAVSLGQRATISCKASQSVDYDGDSYLNWYQQIPGQPPKLLIYDASNLVSGIPPRFSGSGSGTDFTLNIHPVEKVDAATYHCQQSTEDPWTFGGGTKLEIKGGGGSGGGGSGGGGSQVQLQQSGAELVRPGSSVKISCKASGYAFSSYWMNWVKQRPGQGLEWIGQIWPGDGDTNYNGKFKGKATLTADESSSTAYMQLSSLASEDSAVYFCARRETTTVGRYYYAMDYWGQGTTVTVSSGGGGSDVQLVQSGAEVKKPGASVKVSCKASGYTFTRYTMHWVRQAPGQGLEWIGYINPSRGYTNYADSVKGRFTITTDKSTSTAYMELSSLRSEDTATYYCARYYDDHYCLDYWGQGTTVTVSSGEGTSTGSGGSGGSGGADDIVLTQSPATLSLSPGERATLSCRASQSVSYMNWYQQKPGKAPKRWIYDTSKVASGVPARFSGSGSGTDYSLTINSLEAEDAATYYCQQWSSNPLTFGGGTKVEIK",≥ 80 MFI,,,≥ 90 MFI,~25 fold
